The values that follow come from the supplement of paper PMC10567573.

± gives the standard deviation.

A short description of this series: protein stability index of a GFP-peptide fusion (GPS, HEK-293T) (PSI 1-6); higher = more stable. The note with it: c terminus: a fixed tail appended.
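Note: 24-mer peptide tiles fused after GFP, lentivirally expressed, FACS-sorted into six equal bins by GFP/DsRed ratio, decoded by Illumina sequencing, PSI is the read-weighted mean bin number.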

SVPMNGTSIQWKNHDQNNHNTDRS [EDNRA] came in with a protein stability index (treatment: DMSO) of 4.5 ± 0.29 and a protein stability index (treatment: MLN4924 1 uM, 8 h) of 4.92 ± 0.24.

Sequence SVRILGSLVAILLVFLITAILVKV [SLC29A1] returned a protein stability index (treatment: DMSO) of 2.9 ± 0.44 and a protein stability index (treatment: MLN4924 1 uM, 8 h) of 2.85 ± 0.66.

On to SVWVLRDFPEDGLKIFTEDLPEVE [VPS39], for which the protein stability index runs as follows: (treatment: DMSO) 3.55 ± 0.34; (treatment: MLN4924 1 uM, 8 h) 3.59 ± 0.33.

With SWKESSMNIIELEIPDQNIDVEAL [GMCL1], the protein stability index reads like this: (treatment: DMSO) 4.26 ± 0.23; (treatment: MLN4924 1 uM, 8 h) 4.08 ± 0.29.

Regarding SYGGGSASSQHSEGSRSSGSNRSG [DVL3], the protein stability index stood at 5.23 ± 0.081 (treatment: DMSO) and 5.16 ± 0.29 (treatment: MLN4924 1 uM, 8 h).

As to SYMRNENVISELNIEDYFSHHLAV [FBXO39], the protein stability index is 2.26 ± 0.23 (treatment: DMSO) and 2.4 ± 0.38 (treatment: MLN4924 1 uM, 8 h).

Regarding SYSLSRKKIVHYTCFDQRKRANAA [CDC14A], the protein stability index stood at 2.88 ± 0.28 (treatment: DMSO) and 3.05 ± 0.12 (treatment: MLN4924 1 uM, 8 h).

Take TAFLLNIQLFEELQELLTHDTKDQ [HMOX1]: the protein stability index is, setting by setting: (treatment: DMSO) 2.32 ± 0.28; (treatment: MLN4924 1 uM, 8 h) 2.49 ± 0.44.

TAGQERYRAITSAYYRGAVGALLV [RAB11A]: the protein stability index is, setting by setting: (treatment: DMSO) 2.22 ± 0.24; (treatment: MLN4924 1 uM, 8 h) 2.19 ± 0.24.

With TAPEEVPKVSDQALVSAHSEWQRK [DMRTC1], the protein stability index amounted to 4.88 ± 0.61 (treatment: DMSO) and 5.07 ± 0.39 (treatment: MLN4924 1 uM, 8 h).

Take TARPFGAPPPADSAPQQNGQPLRP [PDLIM7]: the protein stability index is, setting by setting: (treatment: DMSO) 4.84 ± 0.52; (treatment: MLN4924 1 uM, 8 h) 4.92 ± 0.058.

As for TEYIESPDVENEVKRLLRSDAEAV [TAF7L], the protein stability index reads like this: (treatment: DMSO) 4.97 ± 0.33; (treatment: MLN4924 1 uM, 8 h) 5.03 ± 0.22.

As to TFGFITMTPQLFINYKLKSVAHLP [CLPTM1], the protein stability index reads like this: (treatment: DMSO) 2.59 ± 0.47; (treatment: MLN4924 1 uM, 8 h) 2.92 ± 0.86.

In the case of TGDPLPEISKDNSCKENCTCSSCL [EDARADD], the protein stability index runs as follows: (treatment: DMSO) 5.47 ± 0.3; (treatment: MLN4924 1 uM, 8 h) 5.47 ± 0.26.

Take TGIEGNWGRLLEQVGTMALWASQR [ZBED2]: the protein stability index is 1.98 ± 0.57 (treatment: DMSO) and 2.48 ± 0.49 (treatment: MLN4924 1 uM, 8 h).

Turning to TGILLHPWLRQDPMPLAPTRSHLW [TRIB3], the protein stability index reads like this: (treatment: DMSO) 2.11 ± 0.25; (treatment: MLN4924 1 uM, 8 h) 2.18 ± 0.089.

For the sequence TGVFITLSIVLERMRYEGVVDIFQ [PTPRD], the protein stability index (treatment: MLN4924 1 uM, 8 h) was 3.66 ± 0.2.

As to THFASQEFFSANAISDQLLGAGSD [ADAMTSL2], the protein stability index amounted to 4.27 ± 0.23 (treatment: DMSO) and 4.23 ± 0.25 (treatment: MLN4924 1 uM, 8 h).

On to TIENILDNDPRDLIGDFSKGYLFH [CDC25A], for which the protein stability index by setting is: (treatment: DMSO) 2.58 ± 0.38; (treatment: MLN4924 1 uM, 8 h) 2.69 ± 0.19.

As to TIPLFVQLLYSPIENIQRVAAGVL [CTNNB1], the protein stability index is, setting by setting: (treatment: DMSO) 2.77 ± 0.78; (treatment: MLN4924 1 uM, 8 h) 2.71 ± 0.38.

Regarding TISFICRELDAISTNEEEKEENEA [PRIM1], the protein stability index reads like this: (treatment: DMSO) 5.16 ± 0.26; (treatment: MLN4924 1 uM, 8 h) 5.16 ± 0.1.

For the sequence TITAPPSRVLQNGGDKLETMPLYL [SCD], the protein stability index reads like this: (treatment: DMSO) 3.5 ± 0.41; (treatment: MLN4924 1 uM, 8 h) 3.43 ± 0.29.

TKVRKQEIIKVTEQLIEAISNGDF [CAMK2A]: the protein stability index by setting is: (treatment: DMSO) 2.38 ± 0.32; (treatment: MLN4924 1 uM, 8 h) 2.66 ± 0.42.

TLAALLLNRSESDIRYLLGYVSQQ [FEM1B]: the protein stability index is, setting by setting: (treatment: DMSO) 2.39 ± 0.42; (treatment: MLN4924 1 uM, 8 h) 2.52 ± 0.61.

Turning to TLIMLLSLAAFSVISVVSYLILAL [RTN3], the protein stability index is, setting by setting: (treatment: DMSO) 2.58 ± 0.36; (treatment: MLN4924 1 uM, 8 h) 2.12 ± 0.11.

For the sequence TLNILLYEAQDGRGPDNALLEATG [KCTD10], the protein stability index is, setting by setting: (treatment: DMSO) 2.92 ± 0.21; (treatment: MLN4924 1 uM, 8 h) 3.29 ± 0.31.

As for TLNKCAVMKLEISPHRKRSDDSDE [DLC1], the protein stability index came to 4.11 ± 0.31 (treatment: DMSO) and 4.29 ± 0.094 (treatment: MLN4924 1 uM, 8 h).

For the sequence TMNRRVCVLMLLAAWIGGFLHSLV [OR4A15], the protein stability index is, setting by setting: (treatment: DMSO) 2.53 ± 0.36; (treatment: MLN4924 1 uM, 8 h) 2.18 ± 0.24.

Regarding TNTRRGSRAPCKVQGLEGIKMAMV [NEK8], the protein stability index stood at 2.32 ± 0.25 (treatment: DMSO) and 2.32 ± 0.23 (treatment: MLN4924 1 uM, 8 h).

For the sequence TNTRSDLDVFGRGDNISDVSKFLE [LUC7L3], the protein stability index was found to be 4.67 ± 0.16 (treatment: DMSO) and 4.76 ± 0.19 (treatment: MLN4924 1 uM, 8 h).

Regarding TPGDCPPGRRDEDAGEGIQCSQRM [TMEM175], the protein stability index reads like this: (treatment: DMSO) 5.15 ± 0.37; (treatment: MLN4924 1 uM, 8 h) 5.25 ± 0.18.

For TPLHRDKTPLHQKHAAFVTPDQKY [MYBL2], the protein stability index was found to be 4.11 ± 0.2 (treatment: DMSO) and 4.08 ± 0.24 (treatment: MLN4924 1 uM, 8 h).

In turn, TPSVPPPASQHSTPAGLPPSRAKP [FBF1] came in with a protein stability index (treatment: DMSO) of 5.3 ± 0.25 and a protein stability index (treatment: MLN4924 1 uM, 8 h) of 5.22 ± 0.23.

Regarding TQAPPSVILGVTNPFFAKTLQHWP [DENND6A], the protein stability index was 2.26 ± 0.24 (treatment: DMSO) and 2.12 ± 0.17 (treatment: MLN4924 1 uM, 8 h).

With TQDSARVNPQDGTNTLTRIAENGV [EHMT1], the protein stability index by setting is: (treatment: DMSO) 5.11 ± 0.16; (treatment: MLN4924 1 uM, 8 h) 5.1 ± 0.19.

As to TQEKKRLSRTNEELLWKLQTGDPT [MTUS2], the protein stability index by setting is: (treatment: DMSO) 4.46 ± 0.34; (treatment: MLN4924 1 uM, 8 h) 4.36 ± 0.11.

In the case of TRRVTFEADENENITVVKGIRLSE [CHCHD3], the protein stability index runs as follows: (treatment: DMSO) 4.29 ± 0.13; (treatment: MLN4924 1 uM, 8 h) 4.47 ± 0.23.
